# Results taken from PMC6345808, “Molecular structure and function of myelin protein P0 in membrane stacking” (Scientific Reports, 2019).
# B1: full-length myelin protein zero (P0) from bovine peripheral myelin (natural protein, UniProt P10522 29-248, looked up)
# chain: AIVVYTDKEVHGAVGSQVTLYCSFWSSEWVSDDLSFTWRYQPEGGRDAISIFHYAKGQPYIDEVGTFKERIQWVGDPHRKDGSIVIHNLDYGDNGTFTCDVKNPPDIVGKTSQVTLYVFEKVPTRYGVVLGAVIGGVLGVVLLALLLFYLIRYCWLRRQAALQRRLSAMEKGKLHKTAKDASKRGRQTPVLYAMLDHSRSTKAASEKKTKGLGESRKDKK
# modifications: N-linked glycan structures belonging to hybrid types
# notes: myelin protein zero (P0, MPZ), bovine, native protein from the raft fraction of peripheral myelin; Oligomeric state depended on detergent: tetramer in DPC, dimer in LDAO; also called MPZ; full-length P0
# Tests used:
# [1] = biological target: the molecule itself; experiment: SEC-MALS; full-length P0 in 0.1% DPC micelles, Superdex 200, 250 mM sodium phosphate pH 8.0, 1 mM EDTA; protein conjugate analysis
# [2] = biological target: the molecule itself; experiment: SEC-MALS; full-length P0 in 0.1% LDAO micelles, Superdex 200, 250 mM sodium phosphate pH 8.0, 1 mM EDTA; protein conjugate analysis
protein,measurement,setting,value
B1,stoichiometry N,[1],4
same,stoichiometry N,[2],2
